Laboratory results: patent US11225653B2, “Methods and compounds for reducing threonyl-tRNA synthetase activity” (University of Vermont and State Agricultural College, priority 2012, dated 2022)
“Also recorded” adds a separate entry of the source.

T1: human TARS (Homo sapiens, UniProt P26639)
T1 construct: His6 (N); made in house; host or cells: E. coli Rosetta 2(DE3)pLysS, plasmid pET28a hctThrRS
T1 sequence (P26639 1-723): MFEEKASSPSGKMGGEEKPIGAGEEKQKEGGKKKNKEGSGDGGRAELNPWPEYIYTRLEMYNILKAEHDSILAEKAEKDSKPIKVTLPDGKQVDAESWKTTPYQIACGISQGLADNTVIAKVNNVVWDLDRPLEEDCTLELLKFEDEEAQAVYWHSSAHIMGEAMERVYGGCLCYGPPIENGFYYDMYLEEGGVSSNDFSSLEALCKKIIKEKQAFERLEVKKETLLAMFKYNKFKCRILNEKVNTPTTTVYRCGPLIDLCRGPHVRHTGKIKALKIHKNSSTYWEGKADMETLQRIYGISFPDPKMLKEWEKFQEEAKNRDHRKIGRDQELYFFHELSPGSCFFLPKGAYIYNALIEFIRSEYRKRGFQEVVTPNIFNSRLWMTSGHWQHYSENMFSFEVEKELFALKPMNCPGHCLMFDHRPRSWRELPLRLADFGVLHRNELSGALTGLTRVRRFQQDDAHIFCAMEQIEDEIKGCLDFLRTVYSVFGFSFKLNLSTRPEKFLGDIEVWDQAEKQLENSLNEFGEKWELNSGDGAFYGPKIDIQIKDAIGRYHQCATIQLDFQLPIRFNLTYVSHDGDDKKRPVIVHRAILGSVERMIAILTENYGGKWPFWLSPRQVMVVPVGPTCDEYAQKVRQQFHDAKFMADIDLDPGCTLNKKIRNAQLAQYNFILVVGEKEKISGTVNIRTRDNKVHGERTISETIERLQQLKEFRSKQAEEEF

B1: TARS: N-terminal His6-tagged human threonyl-tRNA synthetase expressed and purified from E. coli (protein, UniProt P26639 1-723, looked up)
Threonine--tRNA ligase 1, …: T1 sequence (P26639 1-723)
modifications: N-terminal His6 tag
notes: N-terminal His6-tagged human threonyl-tRNA synthetase expressed and purified from E. coli

Legend:
human TARS [1] = molecular target: T1, human TARS; experiment: Ap4A formation assay; format: biochemical; settings: FIGS. 17C and 17D, 10 μM compound
Experimental: (§1) TARS purification and active site determination were performed as previously described (Williams, Mirando et al., 2013). TARS non-canonical catalytic activities were characterized using modifications from published methods (Guo, Chong et al. 2009). For Ap4A reactions 5 μM of wildtype TARS or R442A TARS were incubated for 10 minutes on ice with 2 mM threonine, and 10 μM BC194 or borrelidin as indicated in FIG. 17C. Reactions were initiated using 2 mM ATP with trace amounts of [α-^32P]-ATP as label. At specific time points aliquots were quenched in 3 volumes of 0.1% SDS, 400 mM sodium acetate and resolved on polyethyleneimine-cellulose plates by thin-layer chromatography (TLC) in 3 M NH4 (SO4)2 and 2% EDTA. Radioactive counts were identified by phosphorimaging and products quantified as fractions of total ATP added. The quantitation of product was normalized to take into account the fact that each Ap4A molecule has two equivalents of radioactive phosphorus.

human TARS [2] = molecular target: T1, human TARS; experiment: GTPase assay (GTP hydrolysis); format: biochemical; settings: 10 μM BC194 or 10 μM borrelidin
[3] = test system: Human umbilical vein endothelial cells (HUVECs); experiment: In vitro endothelial tube formation assay; format: cell-based
Experimental: In vitro Tube Formation Assay-Tube formation assays were performed as described (Arnaoutova and Kleinman 2010; Cassavaugh, Hale et al. 2011). Human Umbilical Vein Endothelial Cells (HUVECs) were seeded in 48-well plates (1.5×10^4 cells/well) coated with 100 μl of Matrigel™ Basement Membrane Matrix Growth Factor Reduced (BD Biosciences, San Jose, Calif.) and incubated in Clonetics® EGM®-2 complete media (Lonza, Annandale, N.J.) or EGM®-2 with reduced serum (0.2% fetal bovine serum). Cells were incubated at 37° C. for 6 h then fixed in 10% formalin. Fixed samples were imaged by phase-contrast microscopy or stained with Oregon Green 488 Phalloidin (Molecular Probes, Eugene, Oreg.) then imaged with fluorescence microscopy (2× objective). Number of tubes and tube lengths (in pixels) were quantified using the Simple Neurite Tracer (Longair, Baker et al. 2011) plug-in on ImageJ software (NIH). Statistical analysis of one-way ANOVA was performed with GraphPad Software. Multiple comparisons were performed using the Tukey Test.

HUVECs = experiment: Endothelial cell proliferation assay (alamarBlue); format: cell-based, human
Experimental: Endothelial Cell Proliferation Assay—The […] alamarBlue® (Invitrogen) reagent was used to assess cell proliferation (Ahmed, Gogal et al. 1994). HUVECs were seeded in a 96-well dish (1×10^3 cells/well) and grown for 48 h in EGM®-2 media. Cells were incubated in 0.2% FBS EGM®-2 media or EGM®-2 complete media as indicated; VEGF (50 ng/ml) and media alone served as controls. After 48 h, 72 h, or 96 h in culture, 10 μl/well premixed alamarBlue® (Invitrogen) was added and after 3 h at 37° C. the amount of reduced alamarBlue® was quantified by fluorescence (excitation at 530 nm, emission at 590 nm) on a microplate reader (Synergy™ HT, BioTek, Winooski, Vt.).

[4] = test system: chorioallantoic membrane (CAM); experiment: Chick chorioallantoic membrane (CAM) assay; format: in vivo, chicken
Experimental: Chick Chorioallantoic Membrane Assay-Fertilized chicken eggs (Sunrise Farms, Catskill, N.Y.) day 1-2 post-laying were incubated in a humidified incubator at 37° C. for 72 h. Cleaned eggs were cracked and plated in a sterile 10 cm^2 tissue culture-treated dish and incubated at 37° C. for another 7 days. On developmental day 10, 1 mm^3 sterile gelatin sponge pieces (Surgifoam®; Johnson & Johnson Wound Management, Somerville, N.J.) were placed within the outer one-third of the membrane between large vessels. 40 μg/ml human bFGF and 2 μg/mL human VEGF were used as pro-angiogenic control compounds; 100 μg/mL retinoic acid (Sigma-Aldrich, St. Louis, Mo.) diluted in phosphate-buffered saline (PBS) was used as an angiostatic control. All compounds were applied in 10 μl to the CAM every 24 h for 72 h. Images were taken using a Leica MZ6 stereomicroscope every 24 h. Compounds were scored according to a modified version of Intensity Scoring as previously described (Ribatti, Nico et al. 2006). Briefly, each experimental condition was given a blinded score from 0-5 based on the change in the extent of vessel convergence and formation in proximity to the sponge from day 0 to day 3. Total score is averaged individual experimental condition scores from at least 15 replicates.
Fertilized chicken embryos were cultured ex-ova and, starting at developmental day 10, agents were applied daily to gelfoam sponges on the CAM. Images were recorded daily over 72 h and scored blindly according to a modified version Intensity Scoring as previously described (Ribatti, Nico et al. 2006). Additional details regarding methods are provided in the Methods and Materials section of Example 1.

HUVEC = experiment: Transwell migration assay; format: cell-based, human; settings: 4 h
Experimental: Transwell Migration Assay—Migration was assessed using transwell inserts (Svensson, Kucharzewska et al. 2011). HUVEC cultures were serum-depleted overnight in Clonetics® EGM®-2 modified with 0.2% fetal bovine serum then 5×10^4 cells were plated in 90% EBM®-2, 10% EGM®-2 in the upper chamber of 0.2% gelatin-coated 24-well 8 μm Transwell® inserts (Corning, Tewksbury, Mass.) with 90% EBM®-2, 10% EGM®-2 media plus 50 ng/ml VEGF, 1-100 nM TARS protein, or 10 nM BC194 in the lower chamber. Cultures were incubated for 4 h, fixed in 10% formalin, and stained with 10 μg/ml DAPI solution (Roche) following removal of cells from the top layer of the chamber with a cotton swab. Migrated cells were imaged using a 4× objective on the Olympus 1×70 Inverted microscope (Olympus). DAPI-stained nuclei were counted using ImageJ software.

human TARS [5] = experiment: Steady state aminoacylation assay; format: biochemical; settings: purified protein
Experimental: Steady State Aminoacylation Assay-The aminoacylation activities of the TARS constructs were determined using modifications to established procedures ([…] et al 2008). Briefly, reaction mixtures consisted of 20 mM Tris-HCl pH 8.0, 100 mM KCl, 10 mM MgCl2, 1 mM dithiothreitol, 2 mM ATP, 2.5 U pyrophosphatase (Roche), 80 μM threonine, 20 μM [14C]-threonine, and 5 μM of E. coli or human […]. Reactions were initiated with the addition of 0.25-0.75 μM TARS and run at 37° C. Aliquots were taken at varying time points and spotted onto Whatmann 3MM paper filters pre-soaked in 5% trichloroacetic acid (TCA). Upon completion, the filters were washed 3 times in excess TCA, once in 95% ethanol, and dried under a heating lamp. The formation of […] was detected by scintillation counter and the activity determined by linear regression of […] formed per active site per unit time.

human TARS [6] = experiment: Ap4A formation assay; format: biochemical; settings: 5 μM enzyme, 2 mM threonine, 2 mM ATP
Experimental: as §1

human TARS [7] = experiment: Ap4G formation assay; format: biochemical; settings: 2 mM ATP, 2 mM threonine, 2 mM GTP
human TARS [8] = experiment: GTPase assay (GTP hydrolysis); format: biochemical; settings: 2 mM GTP

Row | Molecule | inhibition of Ap4A and Ap4G synthesis (in words) (human TARS [1]) | change of TARS GTPase activity upon treatment (human TARS [2]) | tube (branch) length ([3]; HUVECs on Matrigel, range of BC194 concentrations) | effect on VEGF proliferative response (HUVECs; 10 nM BC194, 50 ng/ml VEGF, low serum media) | inhibition of vessel formation on the CAM ([4]; daily application to gel sponge, basal, bFGF (40 μg/ml) or VEGF (2 μg/ml) stimulated) | effect on VEGF- and TARS-mediated migration (HUVEC; 10 nM BC194 with 50 ng/ml VEGF or 100 nM TARS) | number of tube branches after exogenous protein ([3]; 100 nM purified recombinant human TARS in low serum media (0.2% FBS), 6 h) | cell proliferation with TARS (HUVECs; HUVECs in low serum (0.2% FBS) media) | sensitivity of protein-stimulated CAM vessel formation to BC194 ([4]; protein applied together with BC194) | vessel formation / vascularization on the CAM after applied protein ([4]; purified protein applied daily to sponge, scored over 72 h) | migration of endothelial cells (HUVEC; 100 nM TARS or 100 nM LARS in migration compartment) | aminoacylation activity of the protein (human TARS [5]) | production of Ap4A (human TARS [6]) [Ap4A/active site/min] | rate of Ap4G formation (human TARS [7]) [Ap4G/active site/min] | GTP hydrolysis (human TARS [8]) [GDP/active site/min]
1 | C[C@@H]1C[C@H](C)C[C@H](C)[C@@H](O)CC(=O)O[C@H]([C@@H]2CCC[C@H]2C(=O)O)C/C=C/C=C(/C#N)[C@H](O)[C@@H](C)C1 [borrelidin, reference compound] | at least partially inhibited | no observable change |  |  |  |  |  |  |  |  |  |  |  |  | 
2 | C[C@@H]1C[C@H](C)C[C@H](C)[C@@H](O)CC(=O)O[C@H]([C@@H]2CC[C@H]2C(=O)O)C/C=C/C=C(/C#N)[C@H](O)[C@@H](C)C1 [BC194, reference compound] | at least partially inhibited | no observable change | does not affect endothelial tube branch length | did not significantly reduce the VEGF proliferative response | inhibited vessel formation at both the basal level and after stimulation with either bFGF or VEGF | reduced both the migration effects of VEGF and TARS |  |  |  |  |  |  |  |  | 
3 | B1 |  |  |  |  |  |  | significantly increased the number of tube branches; also recorded: promotes angiogenesis | did not exert a significant effect on cell proliferation; also recorded: does not significantly affect cell proliferation | sensitive to BC194 | stimulated vessel formation; also recorded: induces in vivo angiogenesis | significantly increased migration of endothelial cells; also recorded: selectively induces migration of endothelial cells | exhibits aminoacyl synthetase activity | 0.1391 | 0.1639 | 0.3033
